Test results: patent CN117603358A

How the values were obtained:
[1] = target: S蛋白, SARS-CoV-2 BF.7 (SARS-CoV-2 BF.7); experiment: cell-based or functional assay
[2] = target: S蛋白, SARS-CoV-2 BA.4/5 (SARS-CoV-2 BA.4/5); experiment: cell-based or functional assay
[3] = target: S蛋白, SARS-CoV-2 XBB (SARS-CoV-2 XBB); experiment: cell-based or functional assay
[4] = target: S蛋白, SARS-CoV-2 Delta (SARS-CoV-2 Delta); experiment: cell-based or functional assay
[5] = target: S蛋白, SARS-CoV-2 BA.2.75 (SARS-CoV-2 BA.2.75); experiment: cell-based or functional assay
[6] = target: S蛋白, SARS-CoV-2 BA.1 (SARS-CoV-2 BA.1); experiment: cell-based or functional assay
[7] = target: S蛋白, SARS-CoV-2 XBB.1.5 (SARS-CoV-2 XBB.1.5); experiment: cell-based or functional assay
[8] = target: S蛋白, SARS-CoV-2 BQ.1.1 (SARS-CoV-2 BQ.1.1); experiment: cell-based or functional assay
[9] = target: S蛋白, SARS-CoV-2 BQ.1 (SARS-CoV-2 BQ.1); experiment: cell-based or functional assay
[10] = target: SARS-CoV-2(BF.7) Spike RBD (SARS-CoV-2 BF.7); experiment: SPR (Biacore 8K), antibody captured on Protein A chip, RBD as analyte
[11] = target: SARS-CoV-2(BA.5) Spike RBD (SARS-CoV-2 BA.5); experiment: as above

Substance: LY-CoV1404 (antibody)
- 假病毒中和活性 IC50 [1]: 2.14 ng/mL
- 假病毒中和活性 IC50 [2]: 1.22 ng/mL
- 假病毒中和活性 IC50 [3]: > 2000 ng/mL
- 假病毒中和活性 IC50 [4]: 3.05 ng/mL
- 假病毒中和活性 IC50 [5]: 25.1 ng/mL
- 假病毒中和活性 IC50 [6]: 1.44 ng/mL
- 假病毒中和活性 IC50 [7]: > 2000 ng/mL
- 假病毒中和活性 IC50 [8]: > 2000 ng/mL
- 假病毒中和活性 IC50 [9]: > 2000 ng/mL
- Kd [10]: 0.162 nM
- Kd [11]: 0.184 nM
